Measured values published in US20170129940A1 (INSTITUTE FOR RESEARCH IN BIOMEDICINE, published 2017).

Tests used:
[1] = target: T1, hCMV gM + gN (co-expressed in HEK293T cells) (human cytomegalovirus, UniProt P16733 1-372; P16795 22-138); assay: cell-based or functional assay
T1 sequence 1: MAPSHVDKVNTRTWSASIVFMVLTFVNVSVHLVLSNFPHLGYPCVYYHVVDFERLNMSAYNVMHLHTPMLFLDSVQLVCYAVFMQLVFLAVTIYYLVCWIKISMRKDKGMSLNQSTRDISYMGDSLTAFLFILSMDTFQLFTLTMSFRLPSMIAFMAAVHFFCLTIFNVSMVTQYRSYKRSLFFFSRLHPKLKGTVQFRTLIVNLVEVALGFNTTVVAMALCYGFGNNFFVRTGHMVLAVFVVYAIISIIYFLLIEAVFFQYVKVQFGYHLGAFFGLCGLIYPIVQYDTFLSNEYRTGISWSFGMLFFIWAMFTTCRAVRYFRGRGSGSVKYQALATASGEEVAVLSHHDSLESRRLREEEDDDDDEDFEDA
T1 sequence 2: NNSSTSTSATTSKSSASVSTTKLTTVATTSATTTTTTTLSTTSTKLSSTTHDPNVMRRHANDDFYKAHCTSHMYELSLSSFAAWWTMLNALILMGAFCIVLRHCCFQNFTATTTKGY

[2] = target: T1, hCMV gM + gN (co-expressed in HEK293T …); assay: cell-based or functional assay; remark: listed apart in the source

B1: 6L3 (antibody, V domains shown)
VH: EVRLEESGGGLVQPGGSLRLSCAASGFTVSTTYMAWVRQAPGKGLEWVSLIHTGGIFGVGGTSYADSVKGRFTISRDTSKNTVSLQMSSLRVEDTAIYFCAREHRGTIDAFDAWGQGTVVIVSS
VL: DIHMTQSPSSLSASVGDRVTITCRASQNIRNYLNWYQHKPGKAPKLLIYTTSRLQSGVPSRFSGSGSGTDFTLTVNSLQPEDFASYYCQQSYDGWTFGQGTKVEMK
50% Neutralization ARPE [1]: ≤ 2 µg/mL
90% Neutralization ARPE [2]: 10 µg/mL
90% Neutralization MRC-9 [2]: 30 µg/mL
